Test results taken from patent US20240002497A1 (Merck Sharp & Dohme, published 2024).
Numbering of substitutions follows the chain as printed. Names may count otherwise. Blank lines part the entries; values can stand above or below the binder they belong to.

Assays:
[1] = target: T1, huNav1.7α+β1 (human, UniProt Q15858 1-1988; Q07699 19-218); assay: binding FACS, HEKa/β1 cells
T1 construct: also called huNav1.7-beta1; HEKa/β1
Experimental: (§1) Binding of the ISVDs to cell-expressed Nav1.7α was detected via murine anti-Flag (Sigma, catalog #F1804). Briefly, cells were resuspended in FACS buffer (PBS, 10% FBS, NaN₃) and transferred to a 96-well V-bottom plate at 1×10^5 cells/well. Purified FLAG3-tagged ISVD was diluted in FACS buffer and added to the cells for 30 minutes at 4° C. […] Prior to the read-out, the samples were resuspended in 1 μg/mL propidium iodide (Sigma, catalog #P4170) to exclude dead cells. Between each step, the cells were centrifuged for 5 minutes at 200 grams and washed with 100 μL/well FACS buffer.

[2] = target: T2, huNav1.7α + β1 (HEKa/β1) (human, UniProt Q15858 1-1988; Q07699 19-218); assay: binding FACS, HEKa/β1 cells
T2 construct: also called HEKa/β1 huNav1.7α
Experimental: as §1

[3] = target: T3, huNav1.7α + β1-β2-β3 (human, UniProt Q15858 1-1988; A5A6L6 19-218; O60939 30-215; Q2KI11 23-215); assay: binding FACS, CHO FlpIn cells
T3 construct: Cell line (CHO FlpIn, HEK FlpIn, transient HEK293T) is named under assay; also called huNav1.7-beta1-beta2-beta3; human Nav1.7α with Navβ1, Navβ2 and Navβ3
How it was run: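 Assessment used purified FLAG3-tagged ISVD incubated on cells for 30 minutes at 4° C in PBS containing 10% FBS and NaN₃, with cells washed between steps. Propidium iodide (1 μg/mL) staining removed dead cells from analysis.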

Bmax relative to '535 [1]: 107%
EC50 [1]: 9.7 nM
B3: F010301138 (VHH)
VHH: EVQLVESGGGLVQPGGSLRLSCAASGMLFYANTQGWYRQAPGKQRELVAFIFSGGYTNYNDSVKGRFTISRDNAKRTMYLQMNSLKPEDSAIYYCALSRYQGQGTLVTVSS
notes: vs F0103265A11: N30Y, V60N, S93A, L103Q

Bmax relative to '535 [1]: 117%
EC50 [1]: 4.7 nM
B4: F010301139 (VHH)
VHH: B3 VHH with Y30N, A31R, I51W, T57V, A96S
notes: vs F0103265A11: A31R, I51W, T57V, V60N, L103Q

Bmax relative to '535 [1]: 118%
EC50 [1]: 5.6 nM
B5: F010301126 (VHH)
VHH: B3 VHH with Y30N, A31R, T57V, N58T, A96S, Q101L
notes: vs F0103265A11: A31R, T57V, N58T, V60N

Bmax relative to '535 [1]: 99%
EC50 [1]: 5.4 nM
B6: F010301059 (VHH)
VHH: B3 VHH with Y30N, T57V
notes: vs F0103265A11: T57V, V60N, S93A, L103Q

EC50 [2]: 24 nM
EC50 [3]: 110 nM
B7: F010301567 (VHH)
VHH: EVQLVESGGGLVQAGGSLRLSCAASVRPYSTSAMGWFRQAPEKEREAVAGILWNGIVTYYADSVKGRFTISRDNAKNEVYLQMNKLKPEDTAVYYCALDRDYGGRSFSAYEYEYWGQGTLVTVSS
notes: F29Y vs F0103362B08 (Kabat)

EC50 [2]: 43 nM
EC50 [3]: 93 nM
B8: F010301591 (VHH)
VHH: B7 VHH with Y29F, G103K
notes: G99K vs F0103362B08 (Kabat)

EC50 [2]: 40 nM
EC50 [3]: 110 nM
B12: F010301593 (VHH)
VHH: B7 VHH with Y29F, R100K
notes: R96K vs F0103362B08 (Kabat)

EC50 [2]: 110 nM
EC50 [3]: 310 nM
B13: F010301568 (VHH)
VHH: B7 VHH with Y29F, G35T
notes: G35T vs F0103362B08 (Kabat)

EC50 [2]: 51 nM
EC50 [3]: 170 nM
B14: F010301586 (VHH)
VHH: B7 VHH with Y29F, W53A
notes: W52aA vs F0103362B08 (Kabat)

EC50 [2]: 30 nM
EC50 [3]: 120 nM
B15: F010301578 (VHH)
VHH: B7 VHH with Y29F, S30G
notes: S30G vs F0103362B08 (Kabat)

EC50 [2]: 42 nM
EC50 [3]: 110 nM
B17: F010301584 (VHH)
VHH: B7 VHH with Y29F, W53T
notes: W52aT vs F0103362B08 (Kabat)

Continued, binder first:

B1: F010301188 (VHH)
VHH: B3 VHH with Y30N, A31R, A96S
notes: vs F0103265A11: A31R, V60N, L103Q
Bmax relative to '535 [1]: 104%
EC50 [1]: 5.1 nM

B2: F010301099 (VHH)
VHH: B3 VHH with Y30N, Y56W, T57V, N58T, N60V, A96S, Q101L
notes: vs F0103265A11: Y56W, T57V, N58T
Bmax relative to '535 [1]: 87%
EC50 [1]: 7.4 nM

B9: F010301589 (VHH)
VHH: B7 VHH with Y29F, I56P
notes: I55P vs F0103362B08 (Kabat)
EC50 [2]: 41 nM
EC50 [3]: 120 nM

B10: F010301579 (VHH)
VHH: B7 VHH with R27K, Y29F
notes: R27K vs F0103362B08 (Kabat)
EC50 [2]: 36 nM
EC50 [3]: 130 nM

B11: F010301574 (VHH)
VHH: B7 VHH with Y29F, G35A
notes: G35A vs F0103362B08 (Kabat)
EC50 [2]: 29 nM
EC50 [3]: 100 nM

B16: F010301585 (VHH)
VHH: B7 VHH with Y29F, V57P
notes: V56P vs F0103362B08 (Kabat)
EC50 [2]: 53 nM
EC50 [3]: 110 nM

B18: F010301592 (VHH)
VHH: B7 VHH with Y29F, R105S
notes: R100aS vs F0103362B08 (Kabat)
EC50 [2]: 67 nM
EC50 [3]: 200 nM

B19: F010301580 (VHH)
VHH: B7 VHH with R27T, Y29F
notes: R27T vs F0103362B08 (Kabat)
EC50 [2]: 35 nM
EC50 [3]: 180 nM
